Source: article PMC8528422 (Science Advances, 2021)
Residue numbers refer to the chain shown, from its start. Names and notes keep the numbering of the source.

B1: FleN, full length (residues 1 to 280), wild type (natural protein, Pseudomonas aeruginosa, UniProt G3XD64 1-280, looked up)
chain: MKQMGSMHPVQVIAVTGGKGGVGKTNVSVNLALALADLGRRVMLLDADLGLANVDVLLGLTPKRTLADVIEGRCELRDVLLLGPGGVRIVPAASGTQSMVHLSPMQHAGLIQAFSDISDNLDVLVVDTAAGIGDSVVSFVRAAQEVLLVVCDEPTSITDAYALIKLLNRDHGMTRFRVLANMAHSPQEGRNLFAKLTKVTDRFLDVALQYVGVIPYDESVRKAVQKQRAVYEAFPRSKASLAFKAVAQKVDSWPLPANPRGHLEFFVERLVQHPATGSAV
B2: FleN L263W (natural protein, Pseudomonas aeruginosa, UniProt G3XD64 1-280, looked up)
chain: B1 chain with L263W
B3: FleN D48A (natural protein, Pseudomonas aeruginosa, UniProt G3XD64 1-280, looked up)
chain: B1 chain with D48A
B4: FleQ AAA+ ATPase (central) domain, residues 142 to 395 (domain or fragment)
chain: not shown
modifications: biotin (EZ-Link NHS-PEG4-Biotin) for the BLI assay
B5: FleN truncated by 25 amino acids at the C terminus, residues 1 to 255 (domain or fragment, Pseudomonas aeruginosa, UniProt G3XD64 1-255, looked up)
chain: MKQMGSMHPVQVIAVTGGKGGVGKTNVSVNLALALADLGRRVMLLDADLGLANVDVLLGLTPKRTLADVIEGRCELRDVLLLGPGGVRIVPAASGTQSMVHLSPMQHAGLIQAFSDISDNLDVLVVDTAAGIGDSVVSFVRAAQEVLLVVCDEPTSITDAYALIKLLNRDHGMTRFRVLANMAHSPQEGRNLFAKLTKVTDRFLDVALQYVGVIPYDESVRKAVQKQRAVYEAFPRSKASLAFKAVAQKVDSWPL

Legend:
[1] = molecular target: FleQ, full length (FleQFL) (Pseudomonas aeruginosa, UniProt G3XCV0 1-490, biotin (EZ-Link NHS-PEG4-Biotin) for the BLI assay); test: BLI
Sequence of FleQ, full length (FleQFL) (G3XCV0 whole entry): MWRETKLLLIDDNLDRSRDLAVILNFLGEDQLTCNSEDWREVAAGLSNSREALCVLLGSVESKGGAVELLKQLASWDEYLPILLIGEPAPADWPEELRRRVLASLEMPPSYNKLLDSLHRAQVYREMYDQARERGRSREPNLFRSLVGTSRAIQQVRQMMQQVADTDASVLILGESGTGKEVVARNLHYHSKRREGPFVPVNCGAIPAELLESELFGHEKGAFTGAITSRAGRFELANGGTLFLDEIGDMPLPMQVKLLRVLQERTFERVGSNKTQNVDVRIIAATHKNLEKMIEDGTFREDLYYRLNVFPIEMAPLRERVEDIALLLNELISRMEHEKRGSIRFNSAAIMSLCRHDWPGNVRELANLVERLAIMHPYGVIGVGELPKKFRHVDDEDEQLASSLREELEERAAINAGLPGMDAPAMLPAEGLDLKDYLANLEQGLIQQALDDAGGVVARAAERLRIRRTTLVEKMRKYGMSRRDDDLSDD

crystal structure = molecular target: the molecule itself; test: crystal structure
cross-linking = molecular target: the molecule itself; test: cross-linking
[2] = molecular target: B1; test: BLI

B1
Kd [1]: 340 nM
stoichiometry N (crystal structure): 2

B2
fold change of KD against WT FleN [1]: 100 fold
stoichiometry N (cross-linking): 2

B3
binding result [1]: binds

B4
Kd [2]: 260 nM

B5
stoichiometry N (cross-linking): 2
